In general, Km refers to the concentration of substrate that gives half-maximal velocity. Broadly, the kcat is the maximal rate divided by the concentration of active sites. A word on the kcat/Km: it is the turnover number divided by the Michaelis constant.

Assay type in all cases: biochemical, human
Substrate in data set [1]: CC(=O)N[C@@H](C)C(=O)N[C@@H](CC(N)=O)C(=O)N[C@@H](Cc1c[nH]c2ccccc12)C(=O)Nc1ccc2c(C)cc(=O)oc2c1
The experiment in a line: Purified proteasome activity assay with fluorogenic substrates, SDS-activated i20S. Particulars: other: i20S, Michaelis-Menten; pH 8.0. How it is done:
(§1) Non-prime-side substrate specificity profiling was performed with a complete, diverse library of 160,000 fluorogenic substrates containing the general structure acetyl-P4-P3-P2-P1-(7-amino-4-carbamoylmethylcourmarin, ACC) ([Harris et al., 2000]). For each sub-library, 10 nM human i20S or c20S underwent SDS pre-activation for 1 hr at room temperature in assay buffer (20 mM Tris, pH 8.0, 0.5 mM EDTA) containing 0.03% SDS. […] Activity assays were carried out over 1 hr following two-fold sample dilution in the same 0.03% SDS-containing buffer that also contained a 250 μM final concentration of PS-SCL substrate pool. Activity was recorded in black 96-well round bottom plates (Costar, COrning, NY) using a BioTek Synergy H4 Hybrid Multi-Mode Microplate Reader set to λex = 380 nm and λem = 460 nm (gain = 63). Initial velocity in relative fluorescence units per second (RFU/s) was calculated using a linear fit of the progress curves with Gen5 software v.2.03.
(§2) Activity assays with individual fluorogenic substrates were carried out as described above for the PS-SCL assays using final concentrations of 5 nM SDS-activated i20S or c20S and 10 μM substrate except where noted below. The commercial substrates Suc-LLVY-AMC, Ac-WLA-AMC (Boston Biochem, S-330), and Ac-ANW-AMC (Boston Biochem, S-320) were used as supplied. To convert cleaved substrate RFU to free AMC or ACC dye concentration, calibration curves were prepared through total enzymatic hydrolysis of ACC- or AMC-containing peptides that had been quantified through amino acid analysis (Alphalyse, Inc.). Substrate selectivity of PA28α- and SDS-activated 20S proteasomes was compared following 1 hr pre-incubation at room temperature either in the presence of 0.03% SDS or with 12 molar equivalents of PA28α activator in the absence of SDS. For substrate selectivity assays with mixed, purified proteasomes, i20S and c20S underwent individual SDS pre-activation prior to assaying with 5 nM final concentration of pooled 20S. Proteasome ratio assays were performed with 10 μM EWFW-ACC, 30 μM iso-VQA-ACC, and 30 μM Suc-LLVY-AMC. All activity measurements were recorded on the BioTek plate reader described above using λex = 380 nm and λem = 460 nm (gain = 63) for ACC substrates and Suc-LLVY-AMC; 345 nm and λem = 445 nm (gain = 63) for Ac-WLA-AMC and Ac-ANW-AMC; and λex = 328 nm and λem = 393 nm (gain = 75) for the GEWHWPS IQ substrate. Michaelis-Menten calculations were performed using a non-linear fit in Prism v.6.0.

Substrate in data set [2]: Cc1cc(=O)oc2cc(NC(=O)[C@H](Cc3ccc(O)cc3)NC(=O)[C@@H](NC(=O)[C@H](CC(C)C)NC(=O)[C@H](CC(C)C)NC(=O)CCC(=O)O)C(C)C)ccc12
The data set is described as above. Particulars: other: Michaelis-Menten plot, commercial substrate; pH 8.0. The protocol: as §1, §2

Substrate in data set [3]: Cc1cc(C(=O)N[C@H](C(=O)N[C@@H](CCC(N)=O)C(=O)N[C@@H](C)C(=O)Nc2ccc3c(CC(N)=O)cc(=O)oc3c2)C(C)C)no1
The data set is described as above. Particulars: other: i20S, Michaelis-Menten; pH 8.0. How it is done: as §1, §2

Substrate in data set [4]: NC(=O)Cc1cc(=O)oc2cc(NC(=O)[C@H](Cc3c[nH]c4ccccc34)NC(=O)[C@H](Cc3c[nH]cn3)NC(=O)[C@H](Cc3c[nH]c4ccccc34)NC(=O)[C@@H](N)CCC(=O)O)ccc12
The description is as above. Particulars: other: i20S, Michaelis-Menten; pH 8.0. The protocol: as §1, §2

Substrate in data set [5]: NC(=O)Cc1cc(=O)oc2cc(NC(=O)[C@H](Cc3c[nH]c4ccccc34)NC(=O)[C@H](Cc3ccccc3)NC(=O)[C@H](Cc3c[nH]c4ccccc34)NC(=O)[C@@H](N)CCC(=O)O)ccc12
The description is as above. Particulars: other: i20S, Michaelis-Menten; pH 8.0. How it is done: as §1, §2

Substrate in data set [6]: CC(=O)N[C@@H](C)C(=O)N[C@@H](CC(N)=O)C(=O)N[C@@H](Cc1c[nH]c2ccccc12)C(=O)Nc1ccc2c(C)cc(=O)oc2c1
The experiment in a line: Purified proteasome activity assay with fluorogenic substrates, SDS-activated c20S. The settings on record: other: c20S, Michaelis-Menten; pH 8.0. The protocol:
as §1, §2

Substrate in data set [7]: Cc1cc(=O)oc2cc(NC(=O)[C@H](Cc3ccc(O)cc3)NC(=O)[C@@H](NC(=O)[C@H](CC(C)C)NC(=O)[C@H](CC(C)C)NC(=O)CCC(=O)O)C(C)C)ccc12
Described as above. The settings on record: other: Michaelis-Menten plot, commercial substrate; pH 8.0. The protocol: as §1, §2

Substrate in data set [8]: Cc1cc(C(=O)N[C@H](C(=O)N[C@@H](CCC(N)=O)C(=O)N[C@@H](C)C(=O)Nc2ccc3c(CC(N)=O)cc(=O)oc3c2)C(C)C)no1
Described as above. The settings on record: other: c20S, Michaelis-Menten; pH 8.0. The protocol:
as §1, §2

Substrate in data set [9]: NC(=O)Cc1cc(=O)oc2cc(NC(=O)[C@H](Cc3c[nH]c4ccccc34)NC(=O)[C@H](Cc3c[nH]cn3)NC(=O)[C@H](Cc3c[nH]c4ccccc34)NC(=O)[C@@H](N)CCC(=O)O)ccc12
The description is as above. The settings on record: other: c20S, Michaelis-Menten; pH 8.0. The protocol:
as §1, §2

Substrate in data set [10]: NC(=O)Cc1cc(=O)oc2cc(NC(=O)[C@H](Cc3c[nH]c4ccccc34)NC(=O)[C@H](Cc3ccccc3)NC(=O)[C@H](Cc3c[nH]c4ccccc34)NC(=O)[C@@H](N)CCC(=O)O)ccc12
The description is as above. Particulars: other: c20S, Michaelis-Menten; pH 8.0. The protocol: as §1, §2

B1: human immunoproteasome core particle (i20S) (Homo sapiens) (protein)
chain 1: TTTLAFKFQHGVIAAVDSRASAGSYISALRVNKVIEINPYLLGTMSGCAADCQYWERLLAKECRLYYLRNGERISVSAASKLLSNMMCQYRGMGLSMGSMICGWDKKGPGLYYVDEHGTRLSGNMFSTGSGNTYAYGVMDSGYRPNLSPEEAYDLGRRAIAYATHRDSYSGGVVNMYHMKEDGWVKVESTDVSDLLHQYREANQ
chain 2: RFSPYVFNGGTILAIAGEDFAIVASDTRLSEGFSIHTRDSPKCYKLTDKTVIGCSGFHGDCLTLTKIIEARLKMYKHSNNKAMTTGAIAAMLSTILYSRRFFPYYVYNIIGGLDEEGKGAVYSFDPVGSYQRDSFKAGGSASAMLQPLLDNQVGFKNMQNVEHVPLSLDRAMRLVKDVFISAAERDVYTGDALRICIVTKEGIREETVSLRKD
notes: purchased Boston Biochem E-370
Regarding B1, the Km is 20 µM in data set [1]; 98.6 µM in data set [2]; 43 µM in data set [3]; 52 µM in [4]; 7.0 µM in data set [5]. In addition, the kcat in data set [1] turned out to be 1.2 s⁻¹; in data set [3], 0.65 s⁻¹; in data set [4], 6.8 s⁻¹; in data set [5], 4.8 s⁻¹. Further, the kcat/Km in data set [1] turned out to be 58000 M⁻¹ s⁻¹; in data set [3] it was 15000 M⁻¹ s⁻¹; in [4] it was 130000 M⁻¹ s⁻¹; in data set [5], 690000 M⁻¹ s⁻¹.

B2: constitutive proteasome core particle (c20S) (Homo sapiens) (protein)
chain 1: TTTLAFKFRHGVIVAADSRATAGAYIASQTVKKVIEINPYLLGTMAGGAADCSFWERLLARQCRIYELRNKERISVAAASKLLANMVYQYKGMGLSMGTMICGWDKRGPGLYYVDSEGNRISGATFSVGSGSVYAYGVMDRGYSYDLEVEQAYDLARRAIYQATYRDAYSGGAVNLYHVREDGWIRVSSDNVADLHEKYSGSTP
chain 2: RFSPYVFNGGTILAIAGEDFAIVASDTRLSEGFSIHTRDSPKCYKLTDKTVIGCSGFHGDCLTLTKIIEARLKMYKHSNNKAMTTGAIAAMLSTILYSRRFFPYYVYNIIGGLDEEGKGAVYSFDPVGSYQRDSFKAGGSASAMLQPLLDNQVGFKNMQNVEHVPLSLDRAMRLVKDVFISAAERDVYTGDALRICIVTKEGIREETVSLRKD
notes: purchased Boston Biochem E-360
For the protein B2, the Km in data set [6] turned out to be 9.8 µM; in data set [7], 65.7 µM; in data set [8], 51 µM; in data set [9], 73 µM; in [10], 1.8 µM. Besides, the kcat in data set [6] stood at 0.1 s⁻¹; in data set [8] it was 2.3 s⁻¹; in data set [9], 1.1 s⁻¹; in data set [10] it was 0.31 s⁻¹. For the same protein, the specificity constant (kcat/Km) in data set [6] was 10000 M⁻¹ s⁻¹; in [8], 45000 M⁻¹ s⁻¹; in data set [9], 15000 M⁻¹ s⁻¹; in data set [10], 170000 M⁻¹ s⁻¹.

Source of the values: PMC5705213, “Immunoproteasome functions explained by divergence in cleavage specificity and regulation” (eLife, 2017).
